Data from article PMC6717114.

Key:
[1] = biological target: Mouse Cdh23 EC1-2(D101G) (mouse); assay: single-molecule force spectroscopy
[2] = biological target: Mouse Cdh23 EC1-2 wild-type (mouse) (UniProt Q99PF4); assay: single-molecule force spectroscopy
Mouse Cdh23 EC1-2 wild-type (mouse), sequence (Q99PF4 24-228): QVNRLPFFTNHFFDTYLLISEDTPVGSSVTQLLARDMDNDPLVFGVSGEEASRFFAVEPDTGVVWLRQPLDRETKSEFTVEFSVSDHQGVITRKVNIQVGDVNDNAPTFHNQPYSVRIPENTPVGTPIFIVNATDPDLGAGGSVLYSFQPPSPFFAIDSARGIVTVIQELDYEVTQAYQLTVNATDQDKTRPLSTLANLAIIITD

“Mouse Pcdh15 EC1-2 wild-type (from UniProt Q99PJ1-18 27-259) (domain or fragment)” was tested, and the koff [1] was 0.0097 s⁻¹.

With “Mouse Pcdh15 EC1-2(D157G) (domain or fragment)” the koff [2] was 0.044 s⁻¹.
